Assay results reported in patent US20180051287A1 (VITRISA THERAPEUTICS, published 2018).

Target: human complement Factor D present in C1q-depleted human serum (human, UniProt P00746 26-253)
Assay: cell-based or functional assay

Chain of human complement Factor D present in C1q-depleted human serum (P00746 26-253 limits assumed): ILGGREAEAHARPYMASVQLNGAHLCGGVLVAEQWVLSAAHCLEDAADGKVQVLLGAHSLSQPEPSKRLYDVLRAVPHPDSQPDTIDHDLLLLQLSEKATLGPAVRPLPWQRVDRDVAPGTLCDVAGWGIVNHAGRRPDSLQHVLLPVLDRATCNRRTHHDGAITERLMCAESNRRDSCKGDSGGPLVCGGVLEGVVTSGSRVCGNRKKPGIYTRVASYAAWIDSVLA

B1: anti-fD Fab with an amino acid sequence of heavy chain variable region according to SEQ ID NO: 71 and light chain variable region according to SEQ ID NO: 72 (Fab)
heavy: EVQLVQSGPELKKPGASVKVSCKASGYTFTNYGMNWVRQAPGQGLEWMGWINTYTGETTYADDFKGRFVFSLDTSVSTAYLQISSLKAEDTAVYYCERGGVNNWGQGTLVTVSSASTKGPSVFPLAPSSKSTSGGTAALGCLVKDYFPEPVTVSWNSGALTSGVHTFPAVLQSSGLYSLSSVVTVPSSSLGTQTYICNVNHKPSNTKVDKKVEPKSCDKTHT
light: DIQVTQSPSSLSASVGDRVTITCITSTDIDDDMNWYQQKPGKVPKLLISGGNTLRPGVPSRFSGSGSGTDFTLTISSLQPEDVATYYCLQSDSLPYTFGQGTKVEIKRTVAAPSVFIFPPSDEQLKSGTASVVCLLNNFYPREAKVQWKVDNALQSGNSQESVTEQDSKDSTYSLSSTLTLSKADYEKHKVYACEVTHQGLSSPVTKSFNRGEC
IC50 inhibiting alternative complement in human serum (fD-dependent lysis of rabbit red blood cells): 3.3 nM
